Experimental data: US20080026996A1, “Selective Vpac2 Receptor Reptide Agonists” (ELI LILLY AND COMPANY, priority 2004, published 2008)
Where no end group is shown, it is not given here. [ ]: non-standard residue; d: D form. hArg = N=C(N)NCCCC[C@H](N)C(=O)O

T1: human VPAC2 receptor (human, UniProt P41587 24-438)
T1 sequence (looked up): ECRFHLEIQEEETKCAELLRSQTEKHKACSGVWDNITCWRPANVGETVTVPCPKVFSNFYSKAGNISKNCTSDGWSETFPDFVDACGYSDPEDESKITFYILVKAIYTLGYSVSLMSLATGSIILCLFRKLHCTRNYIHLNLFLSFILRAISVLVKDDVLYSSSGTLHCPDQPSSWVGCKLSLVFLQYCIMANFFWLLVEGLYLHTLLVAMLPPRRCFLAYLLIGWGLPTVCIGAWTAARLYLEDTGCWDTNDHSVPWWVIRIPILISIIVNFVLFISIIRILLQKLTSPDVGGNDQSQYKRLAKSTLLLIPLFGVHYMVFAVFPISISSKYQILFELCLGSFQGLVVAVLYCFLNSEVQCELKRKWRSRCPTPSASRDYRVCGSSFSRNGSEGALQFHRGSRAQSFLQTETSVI

T2: human VPAC1 receptor (human, UniProt P32241 31-457)
T2 sequence (looked up): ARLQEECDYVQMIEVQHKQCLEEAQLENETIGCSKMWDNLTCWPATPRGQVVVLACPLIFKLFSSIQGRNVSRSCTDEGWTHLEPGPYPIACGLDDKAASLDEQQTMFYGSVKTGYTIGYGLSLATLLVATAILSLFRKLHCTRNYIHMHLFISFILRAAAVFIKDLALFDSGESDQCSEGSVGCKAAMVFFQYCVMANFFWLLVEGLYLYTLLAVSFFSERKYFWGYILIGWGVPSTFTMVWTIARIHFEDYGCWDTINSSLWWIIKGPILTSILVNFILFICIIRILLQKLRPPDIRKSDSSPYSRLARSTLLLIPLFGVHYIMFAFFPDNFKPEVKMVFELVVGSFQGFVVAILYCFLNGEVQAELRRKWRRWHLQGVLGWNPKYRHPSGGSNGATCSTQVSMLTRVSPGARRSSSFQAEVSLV

T3: human PAC1 receptor (human, UniProt P41586 21-468)
T3 sequence (looked up): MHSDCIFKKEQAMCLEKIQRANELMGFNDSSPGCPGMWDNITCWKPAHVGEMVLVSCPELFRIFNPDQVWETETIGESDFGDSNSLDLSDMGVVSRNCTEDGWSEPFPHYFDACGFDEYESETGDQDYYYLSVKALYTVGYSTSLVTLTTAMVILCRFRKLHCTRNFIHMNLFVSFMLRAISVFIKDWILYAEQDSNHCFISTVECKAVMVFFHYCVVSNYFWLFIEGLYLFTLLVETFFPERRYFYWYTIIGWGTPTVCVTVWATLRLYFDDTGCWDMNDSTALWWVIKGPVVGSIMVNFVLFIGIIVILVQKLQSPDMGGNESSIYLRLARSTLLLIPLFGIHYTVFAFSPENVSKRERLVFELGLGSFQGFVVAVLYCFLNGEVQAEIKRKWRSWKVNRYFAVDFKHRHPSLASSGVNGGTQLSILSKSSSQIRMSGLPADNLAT


How the values were obtained:
Assay in all cases: cell-based or functional assay
human VPAC2 receptor = molecular target: T1, human VPAC2 receptor
human VPAC1 receptor = molecular target: T2, human VPAC1 receptor
human PAC1 receptor = molecular target: T3, human PAC1 receptor

Binder	EC50 cAMP, Alpha Screen (human VPAC2 receptor)	EC50 cAMP, DiscoveRx (human VPAC2 receptor)	EC50 cAMP, DiscoveRx (human VPAC1 receptor)	EC50 cAMP, DiscoveRx (human PAC1 receptor)
Ac-HSDAVFTDNYTRLRKQVAAKKYLQSIKNKRYGGPSSGAPPPS [P33]	0.73 nM	0.86 nM	4.7 nM	112 nM
H[dS]DAVFTDNYTRLRKQVAAKKYLQSIKNKRYGGPSSGAPPPS [P48]		9.55 nM	9.93 nM	95.9 nM
HSDAVFTDNYTRLRKQVAAKKYLQSIKNKRYC [P37]		1.68 nM	6.4 nM	35.6 nM
HSDAVFTDNYTRFRKQVAAKKYLQSIKNKRYGGPSSGAPPPS [P26]		4.81 nM	0.9 nM	84 nM
HLDAVFTDNYTRLRKQVAAKKYLQSIKNKRYGGPSSGAPPPS [P46]		121 nM	57.5 nM	> 1000 nM
HSDAVITDNYTRLRKQVAAKKYLQSIKNKRYGGPSSGAPPPS [P63]		> 1000 nM	> 1000 nM	0.9 nM
HSDAWFTDNYTRLRKQVAAKKYLQSIKNKRYGGPSSGAPPPS [P69]		6.39 nM	8.48 nM	104 nM
HSDAVLTDNYTRLRKQVAAKKYLQSIKNKRYGGPSSGAPPPS [P64]		> 1000 nM	221 nM	0.1 nM
HSDAVTTDNYTRLRKQVAAKKYLQSIKNKRYGGPSSGAPPPS [P65]		> 1000 nM	> 1000 nM	0.7 nM
HSDAVFTDNYTRLRKQVAAKKYLQSIQNKRYGGPSSGAPPPS [P74]		2.72 nM	0.4 nM	145 nM
HSDAVFTDNYTRLRKQVAAKKYLQSIKNKRYGGPSSGAPPPS [P6]	3.19 nM	2.56 nM	5 nM	> 40 nM
HSDAVVTDNYTRLRKQVAAKKYLQSIKNKRYGGPSSGAPPPS [P66]		> 1000 nM	< 1000 nM	1.4 nM
HGDAVFTDNYTRLRKQVAAKKYLQSIKNKRYGGPSSGAPPPS [P43]		5.37 nM	75.6 nM	104 nM
HSDWVFTDNYTRLRKQVAAKKYLQSIKNKRYGGPSSGAPPPS [P56]		109 nM	9.96 nM	405 nM
HSDAYFTDNYTRLRKQVAAKKYLQSIKNKRYGGPSSGAPPPS [P70]		4.89 nM	27.4 nM	20.7 nM
HSDYVFTDNYTRLRKQVAAKKYLQSIKNKRYGGPSSGAPPPS [P51]		91.1 nM	3.61 nM	> 1000 nM

Binder	EC50 cAMP, Alpha Screen (human VPAC2 receptor)	EC50 cAMP, DiscoveRx (human VPAC2 receptor)	EC50 cAMP, DiscoveRx (human VPAC1 receptor)	EC50 cAMP, DiscoveRx (human PAC1 receptor)
HSDAVYTDNYTRLRKQVAAKKYLQSIKNKRYGGPSSGAPPPS [P68]		20.3 nM	41 nM	94.7 nM
HSDAVFTDNYTRLRKQVAAKKYLQSIKNKRHGGPSSGAPPPS [P28]		3.92 nM	2.6 nM	53.6 nM
HSDFVFTDNYTRLRKQVAAKKYLQSIKNKRYGGPSSGAPPPS [P52]		140 nM	37.5 nM	> 1000 nM
HSDALFTDNYTRLRKQVAAKKYLQSIKNKRYGGPSSGAPPPS (not fully specified) [P61]		2.14 nM	2.58 nM	11.6 nM
HSDAVFTDNYTRLRKQVAAKKYLQSIKNNRYGGPSSGAPPPS [P75]		3.44 nM	0.65 nM	13.4 nM
HSDATFTDNYTRLRKQVAAKKYLQSIKNKRYGGPSSGAPPPS [P62]		13.2 nM	17 nM	137 nM
HSDLVFTDNYTRLRKQVAAKKYLQSIKNKRYGGPSSGAPPPS (not fully specified) [P55]		15.3 nM	134 nM	> 1000 nM
HPDAVFTDNYTRLRKQVAAKKYLQSIKNKRYGGPSSGAPPPS [P49]		13.4 nM	22.8 nM	44.2 nM
HSDTVFTDNYTRLRKQVAAKKYLQSIKNKRYGGPSSGAPPPS [P54]		32.8 nM	84.1 nM	> 1000 nM
HVDAVFTDNYTRLRKQVAAKKYLQSIKNKRYGGPSSGAPPPS (not fully specified) [P44]		0.92 nM	5.5 nM	36.6 nM
HTDAVFTDNYTRLRKQVAAKKYLQSIKNKRYGGPSSGAPPPS [P45]		11.6 nM	1.75 nM	316 nM
HSDAVFTDNWTRLRKQVAAKKYLQSIKNKRYGGPSSGAPPPS [P27]		27.6 nM	5.2 nM	> 100 nM
HSDAFFTDNYTRLRKQVAAKKYLQSIKNKRYGGPSSGAPPPS [P58]		11.8 nM	44.1 nM	35.6 nM
HSDVVFTDNYTRLRKQVAAKKYLQSIKNKRYGGPSSGAPPPS [P53]		50.5 nM	118 nM	> 1000 nM
HSDAVFTDNYTRLRKQVAAKKYLQSIKNKRF [P34]	2.44 nM	2.28 nM	0.8 nM	80.5 nM
HSDAVFTDNYTRLRKQVAAKKYLQSIKN[hArg]RYGGPSSGAPPPS (ends and bridges not checked) [P24]		5.78 nM	2.5 nM	> 100 nM
